The values below come from article doi:10.1101/2021.01.07.425699.

Like-named read-outs stand apart in the source and are kept apart here.

Data set [1] has as its target T1, AtLFYΔ40 (LEAFY) (Arabidopsis thaliana, UniProt Q00958 41-420, del1-40).
T1 sequence: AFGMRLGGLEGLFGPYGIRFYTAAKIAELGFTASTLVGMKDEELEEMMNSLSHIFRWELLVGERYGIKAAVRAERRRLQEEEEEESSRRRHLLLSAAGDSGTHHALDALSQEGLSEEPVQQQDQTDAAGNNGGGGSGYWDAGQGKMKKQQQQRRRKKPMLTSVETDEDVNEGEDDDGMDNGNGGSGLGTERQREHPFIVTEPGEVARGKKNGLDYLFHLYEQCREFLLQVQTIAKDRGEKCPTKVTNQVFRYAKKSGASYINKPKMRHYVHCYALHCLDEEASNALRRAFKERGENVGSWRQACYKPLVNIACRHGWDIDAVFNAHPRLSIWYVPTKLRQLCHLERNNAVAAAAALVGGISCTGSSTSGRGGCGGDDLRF
Briefly: EMSA. Background: A gel shift assay detects complexes by their altered migration in electrophoresis.

Data set [2] deals with T1, AtLFYΔ40 (LEAFY). The experiment in a line: EMSA. This is another data set of the same source.

B1: 601 free DNA (dsDNA)
DNA 1: ATCGATGTATATATCTGACACGTGCCTGGAGACTAGGGAGTAATCCCCTTGGCGGTTAAAACGCGGGGGACAGCGCGTACGTGCGTTTAAGCGGTGCTAGAGCTGTCTACGACCAATTGAGCGGCCTCGGCACCGGGATTCTGAT
DNA 2: ATCAGAATCCCGGTGCCGAGGCCGCTCAATTGGTCGTAGACAGCTCTAGCACCGCTTAAACGCACGTACGCGCTGTCCCCCGCGTTTTAACCGCCAAGGGGATTACTCCCTAGTCTCCAGGCACGTGTCAGATATATACATCGAT
Turning to B1, the binding result with AtLFYΔ40 (LEAFY) [1] is reported as “binds”.

B2: C2 free DNA (dsDNA)
DNA 1: ATCGATGTATATATCTGACACGTGCCTGGAGACTAGGGAGTAATCCCCTTGGCGGTTAAAACGCATTGACCAGCGGGTAATTGCGTTTAAGCGGTGCTAGAGCTGTCTACGACCAATTGAGCGGCCTCGGCACCGGGATTCTGAT
DNA 2: ATCAGAATCCCGGTGCCGAGGCCGCTCAATTGGTCGTAGACAGCTCTAGCACCGCTTAAACGCAATTACCCGCTGGTCAATGCGTTTTAACCGCCAAGGGGATTACTCCCTAGTCTCCAGGCACGTGTCAGATATATACATCGAT
B2: in the data set with AtLFYΔ40 (LEAFY) [2], the binding result is “binds”.
